Data taken from US20190359653A1 (Genentech, published 2019).

Target: hFZD7 CRD-Fc (human, UniProt O75084 33-185)
Experiment: spot phage ELISA

Row | Binder | S/N | S/W
1 | APSDDLEFWCHVMY [SEQ ID NO 44] | 58.3 | 3.1
2 | AAADDLEFWCHVMY [SEQ ID NO 48] | 56.1 | 3.1
3 | LPSDDLESWCHVMY [SEQ ID NO 53] | 54.5 | 3
4 | APADDLAFWCHVMY [SEQ ID NO 51] | 55.1 | 3
5 | APADDVEFWCHVMY [SEQ ID NO 43] | 58.6 | 3.1
6 | LPADDLAVWCDVMY [SEQ ID NO 52] | 54.9 | 3.1
7 | AASDDLESWCHVMY [SEQ ID NO 50] | 55.6 | 2.9
8 | AAADDLAAWCDVMY [SEQ ID NO 57] | 54 | 3.1
9 | APSDDLAAWCHVVY [SEQ ID NO 56] | 54 | 2.9
10 | APADDLEAWCHVMY [SEQ ID NO 45] | 58.1 | 3.1
11 | APSDDLEFWCHAMY [SEQ ID NO 46] | 57.2 | 3.1
12 | AAADDLEVWCHVMY [SEQ ID NO 54] | 54.4 | 3.1
13 | AASDDLAAWCHVMY [SEQ ID NO 49] | 55.7 | 3
14 | VASDDLEAWCHVMY [SEQ ID NO 47] | 57 | 3.1

Second part, the binder after the results:

Row | S/N | S/W | Binder
15 | 52.1 | 3.1 | AASDDLEAWCHVMY [SEQ ID NO 70]
16 | 53.5 | 3.2 | APADDLASWCHVMY [SEQ ID NO 61]
17 | 52.2 | 3.1 | VPSDDLASWCHVMY [SEQ ID NO 68]
18 | 52 | 3.3 | APSDDLASWCHVMY [SEQ ID NO 71]
19 | 53.2 | 3 | VPSDDLAFWCHVMY [SEQ ID NO 65]
20 | 54 | 3.2 | VASDDLEFWCHVMY [SEQ ID NO 58]
21 | 52.2 | 2.9 | VPSADLESWCHVMY [SEQ ID NO 69]
22 | 51.6 | 3 | APADDLEFWCHVMY [SEQ ID NO 72]
23 | 53.2 | 3.1 | APADDLEFWCHVVY [SEQ ID NO 64]
24 | 52.7 | 3.1 | VPADDLAFWCHVMY [SEQ ID NO 67]
25 | 53.4 | 3.1 | VPADDLASWCHVMY [SEQ ID NO 63]
